Assays:
[1] = target: c-Src SH2; assay: SH2 binding enrichment of the phosphorylated peptide, bacterial display (enrichment ratio); higher = better substrate or ligand; peptides without Tyr show the background
[2] = target: Grb2 SH2 (UniProt P62993); assay: as above
[3] = target: SHP2-C SH2; assay: as above
[4] = tested on: AncSZ; assay: phosphorylation enrichment, bacterial display (enrichment ratio); higher = better substrate or ligand; peptides without Tyr show the background
[5] = target: FGFR1 (UniProt P11362); assay: as above
[6] = tested on: c-Src; assay: as above
[7] = target: Fes (UniProt P07332); assay: as above
[8] = target: Jak2 (UniProt O60674); assay: as above
Jak2, sequence (O60674 whole entry, looked up): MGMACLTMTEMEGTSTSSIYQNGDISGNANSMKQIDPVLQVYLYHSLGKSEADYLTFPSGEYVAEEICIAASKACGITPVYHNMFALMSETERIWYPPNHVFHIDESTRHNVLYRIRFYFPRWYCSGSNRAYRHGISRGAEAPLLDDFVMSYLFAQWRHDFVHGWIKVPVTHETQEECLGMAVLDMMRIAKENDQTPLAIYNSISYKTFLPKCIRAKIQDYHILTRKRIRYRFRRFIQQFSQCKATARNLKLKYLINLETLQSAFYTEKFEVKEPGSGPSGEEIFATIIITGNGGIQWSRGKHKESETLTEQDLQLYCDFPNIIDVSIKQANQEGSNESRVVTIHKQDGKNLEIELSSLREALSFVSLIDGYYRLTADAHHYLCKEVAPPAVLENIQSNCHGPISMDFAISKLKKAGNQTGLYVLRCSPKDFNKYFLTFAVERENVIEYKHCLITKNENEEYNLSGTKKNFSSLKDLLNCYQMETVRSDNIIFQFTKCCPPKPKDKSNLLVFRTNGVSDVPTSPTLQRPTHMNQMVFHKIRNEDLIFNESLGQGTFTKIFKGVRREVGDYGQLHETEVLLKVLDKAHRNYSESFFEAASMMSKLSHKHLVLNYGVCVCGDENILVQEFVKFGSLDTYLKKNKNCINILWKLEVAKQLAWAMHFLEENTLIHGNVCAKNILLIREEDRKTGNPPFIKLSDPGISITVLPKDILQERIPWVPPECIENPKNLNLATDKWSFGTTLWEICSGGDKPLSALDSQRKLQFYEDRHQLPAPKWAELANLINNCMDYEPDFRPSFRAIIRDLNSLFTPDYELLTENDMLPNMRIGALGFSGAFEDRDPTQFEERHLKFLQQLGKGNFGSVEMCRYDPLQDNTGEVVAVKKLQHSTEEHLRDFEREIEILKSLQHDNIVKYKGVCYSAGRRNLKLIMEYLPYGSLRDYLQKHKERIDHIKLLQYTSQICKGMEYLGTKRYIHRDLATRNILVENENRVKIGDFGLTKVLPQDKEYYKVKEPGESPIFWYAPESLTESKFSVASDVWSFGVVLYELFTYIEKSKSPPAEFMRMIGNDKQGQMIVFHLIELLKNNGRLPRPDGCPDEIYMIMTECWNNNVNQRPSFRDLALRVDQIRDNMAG

[9] = target: EPHB2 (UniProt P29323); assay: as above
EPHB2, sequence (P29323 whole entry, looked up): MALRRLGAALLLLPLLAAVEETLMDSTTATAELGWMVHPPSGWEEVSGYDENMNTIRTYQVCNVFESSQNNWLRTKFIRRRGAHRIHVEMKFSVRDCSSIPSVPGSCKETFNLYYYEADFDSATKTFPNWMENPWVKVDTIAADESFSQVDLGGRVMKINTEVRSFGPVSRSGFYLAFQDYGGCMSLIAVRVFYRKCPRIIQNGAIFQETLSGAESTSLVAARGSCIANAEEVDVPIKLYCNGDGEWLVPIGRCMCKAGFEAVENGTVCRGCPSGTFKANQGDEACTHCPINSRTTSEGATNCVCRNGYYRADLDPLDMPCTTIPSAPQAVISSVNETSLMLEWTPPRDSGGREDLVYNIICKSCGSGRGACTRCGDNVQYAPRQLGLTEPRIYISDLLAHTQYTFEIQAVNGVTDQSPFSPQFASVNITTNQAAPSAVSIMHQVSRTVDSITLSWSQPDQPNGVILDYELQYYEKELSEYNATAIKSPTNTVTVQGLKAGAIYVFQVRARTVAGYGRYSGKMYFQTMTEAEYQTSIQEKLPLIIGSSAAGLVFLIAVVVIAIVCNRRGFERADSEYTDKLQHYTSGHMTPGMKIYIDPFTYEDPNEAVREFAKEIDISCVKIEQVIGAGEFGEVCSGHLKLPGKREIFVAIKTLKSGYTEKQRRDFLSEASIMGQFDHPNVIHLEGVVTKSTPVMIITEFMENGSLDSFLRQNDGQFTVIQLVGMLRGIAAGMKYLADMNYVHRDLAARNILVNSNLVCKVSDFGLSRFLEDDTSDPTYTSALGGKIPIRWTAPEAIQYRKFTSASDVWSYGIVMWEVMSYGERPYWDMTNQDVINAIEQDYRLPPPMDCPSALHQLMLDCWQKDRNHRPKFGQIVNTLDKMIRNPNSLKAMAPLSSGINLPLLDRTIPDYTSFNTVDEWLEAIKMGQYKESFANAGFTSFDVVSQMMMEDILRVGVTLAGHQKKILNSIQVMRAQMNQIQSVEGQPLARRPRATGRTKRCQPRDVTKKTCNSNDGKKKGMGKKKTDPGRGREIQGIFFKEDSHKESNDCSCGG

[10] = tested on: c-Abl (mouse); assay: as above
[11] = target: Fyn (UniProt P06241); assay: as above
[12] = tested on: Fer (mouse); assay: as above
[13] = target: Hck (UniProt P08631); assay: as above
[14] = target: MERTK (UniProt Q12866); assay: as above
MERTK, sequence (Q12866 whole entry, looked up): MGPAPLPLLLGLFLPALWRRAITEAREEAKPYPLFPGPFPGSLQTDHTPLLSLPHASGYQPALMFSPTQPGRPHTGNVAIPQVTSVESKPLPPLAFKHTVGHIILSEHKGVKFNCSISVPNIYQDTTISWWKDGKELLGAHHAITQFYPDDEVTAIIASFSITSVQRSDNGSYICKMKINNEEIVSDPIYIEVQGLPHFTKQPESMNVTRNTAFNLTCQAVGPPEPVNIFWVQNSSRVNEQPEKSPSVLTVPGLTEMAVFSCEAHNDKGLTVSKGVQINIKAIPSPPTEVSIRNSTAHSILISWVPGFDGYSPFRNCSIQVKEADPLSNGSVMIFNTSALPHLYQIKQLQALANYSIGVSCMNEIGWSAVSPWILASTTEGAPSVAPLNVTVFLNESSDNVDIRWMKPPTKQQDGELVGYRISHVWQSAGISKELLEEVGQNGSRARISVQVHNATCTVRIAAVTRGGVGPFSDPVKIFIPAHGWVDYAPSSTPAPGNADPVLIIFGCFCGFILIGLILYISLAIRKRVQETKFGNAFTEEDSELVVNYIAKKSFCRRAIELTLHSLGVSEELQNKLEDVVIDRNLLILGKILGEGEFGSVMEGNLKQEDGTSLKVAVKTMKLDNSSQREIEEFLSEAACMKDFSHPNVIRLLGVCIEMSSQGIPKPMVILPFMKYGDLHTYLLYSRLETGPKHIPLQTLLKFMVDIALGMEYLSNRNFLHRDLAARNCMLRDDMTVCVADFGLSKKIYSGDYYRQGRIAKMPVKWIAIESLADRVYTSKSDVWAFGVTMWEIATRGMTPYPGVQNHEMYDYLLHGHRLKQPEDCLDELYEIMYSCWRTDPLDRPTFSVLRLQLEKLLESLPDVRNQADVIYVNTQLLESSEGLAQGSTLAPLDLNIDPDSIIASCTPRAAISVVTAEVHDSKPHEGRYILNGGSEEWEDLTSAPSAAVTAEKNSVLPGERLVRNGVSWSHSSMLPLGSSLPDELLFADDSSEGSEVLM

[15] = target: FGFR3 (UniProt P22607); assay: as above
FGFR3, sequence (P22607 whole entry, looked up): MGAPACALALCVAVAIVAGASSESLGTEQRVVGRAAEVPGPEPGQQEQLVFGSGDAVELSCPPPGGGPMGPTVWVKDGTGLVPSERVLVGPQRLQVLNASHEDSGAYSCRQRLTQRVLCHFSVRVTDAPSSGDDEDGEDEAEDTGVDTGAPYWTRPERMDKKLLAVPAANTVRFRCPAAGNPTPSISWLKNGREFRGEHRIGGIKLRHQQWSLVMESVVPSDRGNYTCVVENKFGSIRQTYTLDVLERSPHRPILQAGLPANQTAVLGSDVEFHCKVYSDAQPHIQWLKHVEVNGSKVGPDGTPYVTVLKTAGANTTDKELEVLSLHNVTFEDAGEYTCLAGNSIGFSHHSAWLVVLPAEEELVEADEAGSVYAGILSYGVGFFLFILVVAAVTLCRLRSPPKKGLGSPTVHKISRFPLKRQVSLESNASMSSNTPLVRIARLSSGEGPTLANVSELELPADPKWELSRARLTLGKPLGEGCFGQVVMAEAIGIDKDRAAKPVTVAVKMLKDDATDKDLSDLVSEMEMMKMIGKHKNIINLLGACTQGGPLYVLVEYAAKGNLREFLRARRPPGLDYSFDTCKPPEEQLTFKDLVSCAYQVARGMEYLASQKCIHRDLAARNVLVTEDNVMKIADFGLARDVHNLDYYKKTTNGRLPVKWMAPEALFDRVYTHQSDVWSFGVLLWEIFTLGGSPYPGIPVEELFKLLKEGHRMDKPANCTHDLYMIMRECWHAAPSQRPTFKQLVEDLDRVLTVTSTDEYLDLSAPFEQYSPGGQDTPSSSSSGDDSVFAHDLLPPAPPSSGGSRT

[16] = target: EPHB1 (UniProt P54762); assay: as above
EPHB1, sequence (P54762 whole entry, looked up, the tested form may be a part): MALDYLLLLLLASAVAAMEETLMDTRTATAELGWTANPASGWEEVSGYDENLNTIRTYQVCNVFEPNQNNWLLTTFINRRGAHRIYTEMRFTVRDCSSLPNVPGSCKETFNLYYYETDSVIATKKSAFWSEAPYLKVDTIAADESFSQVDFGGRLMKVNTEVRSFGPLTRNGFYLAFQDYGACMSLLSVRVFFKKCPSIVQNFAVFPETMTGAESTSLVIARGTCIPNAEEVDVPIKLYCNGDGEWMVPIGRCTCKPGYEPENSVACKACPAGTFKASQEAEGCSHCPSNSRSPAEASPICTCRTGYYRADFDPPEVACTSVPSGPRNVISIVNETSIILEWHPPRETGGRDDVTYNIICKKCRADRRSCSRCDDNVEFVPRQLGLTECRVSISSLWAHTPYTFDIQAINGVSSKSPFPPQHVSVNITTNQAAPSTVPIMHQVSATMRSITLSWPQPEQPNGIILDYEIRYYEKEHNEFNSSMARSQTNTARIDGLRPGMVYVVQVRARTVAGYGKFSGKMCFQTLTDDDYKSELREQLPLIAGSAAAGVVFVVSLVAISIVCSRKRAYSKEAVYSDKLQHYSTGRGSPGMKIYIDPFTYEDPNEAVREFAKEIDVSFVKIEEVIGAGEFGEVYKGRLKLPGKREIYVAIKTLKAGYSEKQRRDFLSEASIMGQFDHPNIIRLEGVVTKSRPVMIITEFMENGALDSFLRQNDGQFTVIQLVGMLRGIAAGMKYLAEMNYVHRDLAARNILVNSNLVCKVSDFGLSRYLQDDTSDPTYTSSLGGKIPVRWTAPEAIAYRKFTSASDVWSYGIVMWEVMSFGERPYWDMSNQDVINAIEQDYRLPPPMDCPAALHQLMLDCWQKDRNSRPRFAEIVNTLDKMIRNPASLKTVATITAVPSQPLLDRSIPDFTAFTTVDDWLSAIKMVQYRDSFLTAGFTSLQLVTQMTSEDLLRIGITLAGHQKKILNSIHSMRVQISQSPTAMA
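Wherever SH2 binding enrichment of the phosphorylated peptide, bacterial display is given: peptide library displayed on the E. coli surface as eCPX fusions, selected cells deep-sequenced, score is each peptide's frequency after selection divided by its frequency in the input.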
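Wherever phosphorylation enrichment, bacterial display is given: 11-residue human phosphosite peptides and single-mutation variants displayed on the E. coli surface, counted by deep sequencing, each peptide's frequency after selection divided by its frequency in the unselected input library; frequency after pTyr selection over input frequency; kinase dosed for 20-30% of maximal phosphorylation in three min.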

FAFQLYDLDRD [CHP2_Y123_YF] was tested, and the SH2 binding enrichment [1] was 0.923, the SH2 binding enrichment [2] was 0.991 and the SH2 binding enrichment [3] was 0.885. For the same sequence, the phosphorylation enrichment [4] was 1.06, the phosphorylation enrichment [5] was 0.467 and the phosphorylation enrichment [6] was 2.17. It also gave a phosphorylation enrichment [7] of 1.37, a phosphorylation enrichment [8] of 1.13 and a phosphorylation enrichment [9] of 0.673. It also gave a phosphorylation enrichment [10] of 0.823, a phosphorylation enrichment [11] of 1.2 and a phosphorylation enrichment [12] of 0.631. For the same sequence, the phosphorylation enrichment [13] was 1.03, the phosphorylation enrichment [14] was 0.694 and the phosphorylation enrichment [15] was 0.68. It also gave a phosphorylation enrichment [16] of 1.23.
Work on FDEFRYRSFIK [CFTR_Y517_V520F_YF] yielded an SH2 binding enrichment [1] of 0.414, an SH2 binding enrichment [2] of 0.702 and an SH2 binding enrichment [3] of 0.41. For the same sequence, the phosphorylation enrichment [4] was 0.775, the phosphorylation enrichment [5] was 0.498 and the phosphorylation enrichment [6] was 0.419. For the same sequence, the phosphorylation enrichment [7] was 0.764, the phosphorylation enrichment [8] was 0.497 and the phosphorylation enrichment [9] was 0.39. The phosphorylation enrichment [10] was 0.454, the phosphorylation enrichment [11] was 0.467 and the phosphorylation enrichment [12] was 0.556. The phosphorylation enrichment [13] was 0.511, the phosphorylation enrichment [14] was 0.422 and the phosphorylation enrichment [15] was 0.526. The phosphorylation enrichment [16] was 0.417.
FEKNVYVDKNL [PTCHD3_Y688] gave an SH2 binding enrichment [1] of 0.542, an SH2 binding enrichment [2] of 0.962 and an SH2 binding enrichment [3] of 0.543. For the same sequence, the phosphorylation enrichment [4] was 0.615, the phosphorylation enrichment [5] was 0.419 and the phosphorylation enrichment [6] was 0.446. For the same sequence, the phosphorylation enrichment [7] was 0.894, the phosphorylation enrichment [8] was 0.732 and the phosphorylation enrichment [9] was 0.406. It also gave a phosphorylation enrichment [10] of 0.616, a phosphorylation enrichment [11] of 0.405 and a phosphorylation enrichment [12] of 0.437. It also gave a phosphorylation enrichment [13] of 0.505, a phosphorylation enrichment [14] of 0.411 and a phosphorylation enrichment [15] of 0.461. It also gave a phosphorylation enrichment [16] of 0.36.
Sequence FFLGAYDRFLP [SLC22A5_Y486_V481F_YF] has an SH2 binding enrichment [1] of 1.25, an SH2 binding enrichment [2] of 1.15 and an SH2 binding enrichment [3] of 1.74. It also gave a phosphorylation enrichment [4] of 1.5, a phosphorylation enrichment [5] of 0.503 and a phosphorylation enrichment [6] of 3.75. It also gave a phosphorylation enrichment [7] of 1.46, a phosphorylation enrichment [8] of 1.02 and a phosphorylation enrichment [9] of 1.13. The phosphorylation enrichment [10] was 0.842, the phosphorylation enrichment [11] was 1.99 and the phosphorylation enrichment [12] was 1.04. The phosphorylation enrichment [13] was 3.38, the phosphorylation enrichment [14] was 3.38 and the phosphorylation enrichment [15] was 0.782. It also gave a phosphorylation enrichment [16] of 0.756.
For FGSVMYEFVGK [SLC18A1_Y251], the SH2 binding enrichment [1] was 0.591, the SH2 binding enrichment [2] was 0.684 and the SH2 binding enrichment [3] was 0.445. It also gave a phosphorylation enrichment [4] of 2.6, a phosphorylation enrichment [5] of 1.35 and a phosphorylation enrichment [6] of 3.48. The phosphorylation enrichment [7] was 1.76, the phosphorylation enrichment [8] was 1.38 and the phosphorylation enrichment [9] was 3.28. The phosphorylation enrichment [10] was 1.3, the phosphorylation enrichment [11] was 2.57 and the phosphorylation enrichment [12] was 15.1. For the same sequence, the phosphorylation enrichment [13] was 8.76, the phosphorylation enrichment [14] was 11.1 and the phosphorylation enrichment [15] was 1.35. For the same sequence, the phosphorylation enrichment [16] was 5.8.
In the case of FHIDHYLGKEM [G6PD_Y202_R198H_YF], the SH2 binding enrichment [1] is reported as 0.778, the SH2 binding enrichment [2] is reported as 1.33 and the SH2 binding enrichment [3] is reported as 0.787. It also gave a phosphorylation enrichment [4] of 0.556, a phosphorylation enrichment [5] of 0.53 and a phosphorylation enrichment [6] of 0.334. The phosphorylation enrichment [7] was 0.688, the phosphorylation enrichment [8] was 0.467 and the phosphorylation enrichment [9] was 0.553. The phosphorylation enrichment [10] was 0.415, the phosphorylation enrichment [11] was 0.39 and the phosphorylation enrichment [12] was 0.342. It also gave a phosphorylation enrichment [13] of 0.503, a phosphorylation enrichment [14] of 0.331 and a phosphorylation enrichment [15] of 0.481. For the same sequence, the phosphorylation enrichment [16] was 0.438.
Sequence FIGVTYKNKED [PDGFRA_Y993_E996K_YF] has an SH2 binding enrichment [1] of 0.566, an SH2 binding enrichment [2] of 1.08 and an SH2 binding enrichment [3] of 0.996. It also gave a phosphorylation enrichment [4] of 0.776, a phosphorylation enrichment [5] of 0.458 and a phosphorylation enrichment [6] of 0.426. It also gave a phosphorylation enrichment [7] of 0.922, a phosphorylation enrichment [8] of 0.797 and a phosphorylation enrichment [9] of 0.582. For the same sequence, the phosphorylation enrichment [10] was 0.567, the phosphorylation enrichment [11] was 0.495 and the phosphorylation enrichment [12] was 0.417. For the same sequence, the phosphorylation enrichment [13] was 0.427, the phosphorylation enrichment [14] was 0.386 and the phosphorylation enrichment [15] was 0.743. It also gave a phosphorylation enrichment [16] of 0.422.
Sequence FIPSNYVAEDR [FRK_Y104_YF] has an SH2 binding enrichment [1] of 0.579, an SH2 binding enrichment [2] of 0.82 and an SH2 binding enrichment [3] of 0.868. For the same sequence, the phosphorylation enrichment [4] was 0.74, the phosphorylation enrichment [5] was 0.412 and the phosphorylation enrichment [6] was 0.42. It also gave a phosphorylation enrichment [7] of 0.657, a phosphorylation enrichment [8] of 0.564 and a phosphorylation enrichment [9] of 0.443. The phosphorylation enrichment [10] was 0.431, the phosphorylation enrichment [11] was 0.394 and the phosphorylation enrichment [12] was 0.427. For the same sequence, the phosphorylation enrichment [13] was 0.411, the phosphorylation enrichment [14] was 0.399 and the phosphorylation enrichment [15] was 0.502. For the same sequence, the phosphorylation enrichment [16] was 0.386.

Reference: the supplement of paper PMC10065799, “High-throughput profiling of sequence recognition by tyrosine kinases and SH2 domains using bacterial peptide display” (eLife, 2023)
